Experiment: label from the status in PepcDB records

With “ISDQAETPMFNIGSAVPRGELVLAMEKIGKLLQERGGSVVIRGHTDGRQFKGEANDNWRLSMDRAHSAYYMLVRGGLSEERVKQVSGFADRRLQVPSNPLADANRRIEILLEADRG” the protein production was “failed”.
With “ISKASATRHSQLVTHACRLIETSDPVPSLGQLSARLAVSPFHLHRLFKAETGV” the protein production was “failed”.
In the case of “ITSVQPPTGLQEWLKMFQSWSGPEKLLALDELIDSCEPTQVKHMMQVIEPQFQRDFISLLPKELALYVLSFLEPKDLLQAAQTCRYWRILAEDNLLWREKCKEEGIDEPLHIKRRKVIKPGFIHSPWKSAYIRQHRIDTNWRRGELKSPKVLKGHDDHVITCLQFCGNRIVSGSDDNTLKVWSAVTGKCLRTLVGHTGGVWSSQMRDNIIISGSTDRTLKVWNAETGECIHTLYGHTSTVRCMHLHEKRVVSGSRDATLRVWDIETGQCLHVLMGHVAAVRCVQYDGRRVVSGAYDFMVKVWDPETETCLHTLQGHTNRVYSLQFDGIHVVSGSLDTSIRVWDVETGNCIHTLTGHQSLTSGMELKDNILVSGNADSTVKIWDIKTGQCLQTLQGPNKHQSAVTCLQFNKNFVITSSDDGTVKLWDLKTGEFIRNLVTLESGGSGGVVWRIRASNTKLVCAVGSRNGTEETKLLVLDFDVDMK”, the protein production is reported as “failed”.
For “KAEAEQNWWEGPPQDLSVHLWYAGPMERAGAESILANRSDGTFLVRQRVKDAAEFAISIKYNVEVKHIKIMTAEGLYRITEKKAFRGLTELVEFYQQNSLKDCFKSLDTTLQFPFKEPEKRTISR”, the protein production was “not failed”.
With “KAKAAFFDIDGTLYREGLISEVFKKLIKYEIIDEEKWYKEVRPEFEKWDNRKGDYDDYLLKMTEIYVDALNGLSKSQVEFIASQVVNQKGERVYTYTRDRIKWHKERGHKIITISGSPIELVRNMAEKYGFDDYRGAEYLLDENDVYTGEVIPMWDSKSKERAVHELEAKYNIDLGESYAYGDTSGDLTMLKMVGNPVCINPTKELVKEILSDEEVKNKIRIIVERK” the protein production was “not failed”.
With “KEKDTIAAEHKQEASVLLNLHRNKINYLIGETMARMTSLSIAIDRPVDIKKMQSILEKTFDSEPRFSGLYFLNAKGDVTASTTELKTKVNLADRSFFIKAKETKKTVISDSYSSRITGQPIFTICVPVLDSKRNVTDYLVAAIQIDYLKNLINLLSPDVYIEVVNQDGKMIFASGQASHAEDQKPVSGYLDDISWNMKVYPNPVTIEEL” the protein production was “not failed”.
For “KEMKQIQNEFKERMDEGELLNCMRCGFCLPSCPTYIESGFQETHSPRGRIALMKAVADGMIEPDEDVERSLSLCLGCRACEPVCPSGVKYGQLLEEARDIIHQNKKHSLGE”, the protein production was “failed”.
With “KFTELEFHRIIGTGQFGLVRVVRNIKTNEVYALKVMHKAPIVESKQIEHVINERKILEEACTHPFCVRLCGAYQDKASLYLLQEWVPGGELFHHLDVEGAFDEPTAMFYAANVLLALEFLHAKGIVYRDLKPENLLLDTQGYIKMADFGFAKYIGGDKTYTICGTPDYQAPEVIMRRGTTKAADYWALGVLIFEMLVGDPPFKSLTGDPWDTFRRTLSGRFYVPNFISDQAADLIFKLLQVNPDKRLGSDKRLGAEEIKRHRWFSRIDWRALEQKKLPSPFRPRVRNPLDTSNFDNFDN” the protein production was “not failed”.
With “KGDDNYYIIFTSGTTGQPKGVQISHDNLLSFTNWMIEDAAFDVPKQPQMLAQPPYSFDLSVMYWAPTLALGGTLFALPKELVADFKQLFTTIAQLPVGIWTSTPSFADMAMLSDDFCQAKMPALTHFYFDGEELTVSTARKLFERFPSAKIINAYGPTEATVALSAIEITREMVDNYT” the protein production was “failed”.
In the case of “KGKIQEADNAAKLSAIKFVLKDPLTGDYLVDEKEIEEIVKKTGIETVVLKEYKEGVVLGPLYEFVTKDGRNAYVLSGYAPGFGGNVTVVACFIKTEDGFMLNSVRVIDYSQETPGLGAKIGEESIQRRFFPVPPEGLKNGLRVDKDAGLPKGSPEELKKQGIVKVSDVMTGATITPRAVVTALNLMYRYLEEVSK”, the protein production is reported as “not failed”.
In the case of “KKAVINDSNTPLHLLQPAYQGTYGDLTPEQVKKDIDRVFAYIDKETPARVVDKNTGKVITDYTAMGDEAQLERGAFRLASYEWGVTYSALIAAAETTGDKRYTDYVQNRFRFLAEVAPHFKRVYEEKGKTDSQLLQILTPHALDDAGAVCTAMIKLRLKDESLPVDGLIQNYFDFIINKEYRLADGTFARNRPQRNTLWLDDMFMGIPAVAQMSRYDKEAKNKYLAEAVKQFLQFADRMFIPEKGLYRHGWVESSTDHPAFCWARANGWALLTACELLDVLPEDYPQRPKVMDYFRAHVRGVTALQSGEGFWHQLLDCNDSYLETSATAIYVYCLAHAINKGWIDAIAYGPVAQLGWHAVAGKINEEGQVEGTCVGTGMAFDPAFYYYRPVNVYAAHGYGPVLWAGAEMIRLLNTQHPQMNDSAVQYYQEKQKTTAPIFAVDSE”, the protein production is reported as “not failed”.
With “KKFEQVIYRGITEGKSSNEIREELVHQAGMSSDKAAFIARDQTGTILGQMNSERQKRAGFQAFRWSDSGDERVRDSHRERNGKIYFYADNPLLPGEEYNCRCVAE” the protein production was “failed”.
For “KLKISEASLEDYSEVVHLFNRNHVYQFPDGRPLTVDDLDLTLKVKEVTHLFLLKNHGVLIGTSAFFKFITYGCLDWNSSFSGFLLIDSKSRSGQAITYLYKTILKKITKLKFSNIYTEISNYNKPSLALSKLNGFKEYDKTYEDILHCRSLRSHL”, the protein production was “failed”.
For “KMFFKVIDTLSDNYEKEMLLLEAEAKEQYYQELEKSSREVRKIKHDLKNMLLAICGKAKKQNEISEEIYKIIKELDESDKKIYTSNVVINTIINHKISQAKKLEIKTDVNIKVSKAIHIDYKDAGILLGNILDNAIEACEKIKKKERWIKIDMLHNKNTLFIEVCNSKGKELTNISKSSKSDAHNHGIGISSIKAITKKYDGYVEFVDKGEEFEVVVNLYGMSF”, the protein production was “failed”.
In the case of “KNIEETELVVEEMLEQYPNGKIVRLLFHGEQAKLPIISHIVQEYQVEVSIIQGNIQQTKQGAVGSLYIQLLGEEQNILAAIEGLRKLRVETEVIGNE”, the protein production is reported as “not failed”.
With “KPIKIRGPSHCAGCKEEIKHGQSLLALDKQWHVSCFKCQTCSVILTGEYISKDGVPYCESDYHAQFG” the protein production was “not failed”.
In the case of “KRYIRKEAADALKTMFDAAKKEGYELAAVSGYRSYDRQKVIFDNEVSLKGERKAKEAVAYPGESEHQTGLAMDISSRSNGFELNEAFGSTADGKWVQDNAYKYGFIIRYPKNKEDITKYEYEPWHLRYVGK”, the protein production is reported as “not failed”.
With “KSEIGKYAPFFSLPNAKGEKITRSSDAFKQKSLLINFWASWNDSISQKQSNSELREIYKKYKKNKYIGMLGISLDVDKQQWKDAIKRDTLDWEQVCDFGGLNSEVAKQYSIYKIPANILLSSDGKILAKNLRGEELKKKIENIVEEA” the protein production was “not failed”.
In the case of “KSEKRMKLTLKGGAAVDPDSGLEHSAHVLEKGGKVFSATLGLVDIVKGTNSYYKLQLLEDDKENRYWIFRSWGRVGTVIGSNKLEQMPSKEDAIEHFMKLYEEKTGNAWHSKNFTKYPKKFYPLEI”, the protein production is reported as “not failed”.
In the case of “KSPVREPVDNLSPEERDARTVFCMQLAARIRPRDLEDFFSAVGKVRDVRIISDRNSRRSKGIAYVEFCEIQSVPLAIGLTGQRLLGVPIIVQASQAEKNRL”, the protein production is reported as “not failed”.
For “KTFAALGSGVIGSGWIARALAHGLDVVAWDPAPGAEAALRARVANAWPALRKQGLAPGAAQERLRFVASIEECVGDADFIQESAPERLDLKLDLHARISAAARPDVLIGSSTSGLLPSEFYAEASHPERCLVGHPFNPVYLLPLVEVVGGERTAAEAVRAAMRVYESLGMRPLHVRKEVPGFIADRLLEALWREALHLVNDGVATTGEIDDAIRFGAGLRWSFMGTFLTYTLAGGNAGMRHFMAQFGPALQLPWTYLPAPELTEALIDRVVEGTAEQQGARSIAELERYRDDCLLAVLGAIRETKARHGFA”, the protein production was “failed”.
For “KTPIQVLHEYGMKTKNIPVYECERSDVQIHVPTFTFRVTVGDITCTGEGTSKKLAKHRAAEAAINILKANA”, the protein production was “not failed”.
With “KVKSGWLDKLSPQGKRMFQKRWVKFDGLSISYYNNEKEMYSKGIIPLSAISTVRVQGDNKFEVVTTQRTFVFRVEKEEERNDWISILLNALKSQSLTSQSQA” the protein production was “not failed”.
For “KVVFAKEQPAHREVQAEAGASATLSCEVAQAQTEVTWYKDGKKLSSSSKVRVEAVGCTRRLVVQQAGQAEAGEYSCEAGGQQLSFRLQVAGQCFG”, the protein production was “not failed”.
With “LAAESQADYLGFIFAESKRKVSPEDVKKWLNQVRVEKQVAGVFVNESIETMSRIAKSLKLDVIQLHGDEKPADVAALRKLTGCEIWKALHHQDNTTQEIARFKDNVDGFVIDSSVKGSRGGTGVAFSWDCVPEYQQAAIGKRCFIAGGVNPDSITRLLKWQPEGIDLASGIEKNGQKDQNLMRLLEERMNRYVSISE” the protein production was “failed”.
For “LAPPRHLGFSDVSHDAARVFWEGAPRPVRLVRVTYVSSEGGHSGQTEAPGNATSAMLGPLSSSTTYTVRVTCLYPGGGSSTLTGRVTTKKAPSPS”, the protein production was “not failed”.
With “LDDLSEFVDQVPLLDHHCHFLIDGKVPNRDDRLAQVSTEADKDYPLADTKNRLAYHGFLALAKEFALDANNPLAAMNDPGYATYNHRIFGHFHFKELLIDTGFVPDDPILDLDQTAELVGIPVKAIYRLETHAEDFMLEHDNFAAWWQAFSNDVKQAKAHGFVGFKSIAAYRVGLHLEPVNVIEAAAGFDTWKHSGEKRLTSKPLIDYMLYHVAPFIIAQDMPLQFHVGYGDADTDMYLGNPLLMRDYLKAFTKKGLKVVLLHCYPYHREAGYLASVFPNLYFDISLLDNLGPSGASRVFNEAVELAPYTRILFASDASTYPEMYGLAARQFKQALVAHFNQLPFVDLAQKKAWINAICWQTSAKLYHQERELRV” the protein production was “not failed”.
With “LEDFNVTSKVIELDVRKPTPEAAENLNIGMDEDIYYVKRVRYINGQTLCYEESYYTKSIVTYLNNEIVSHSIFHYIREGLGLKIGFSDLFLHVGQLNEEEAEYLGLEAGLPKLYIESIFHLTNGQPFDYSKISYNYEQSQFVVQANSFLL” the protein production was “failed”.
In the case of “LESSMNKFHALFDSVMDACVIIDKRGVIKECNAALQTLLGVEDKTALVGTSLTQFHLADTFMGSAVQIAQSVEDVLKQGLLKFEADITDSQGQSIPAEVTLKSIELNTERFVLATYHNLAERRLVDRLIRHERNLLKNVLGMSPIGVWVCVNGTCRYVNAQMTLM”, the protein production is reported as “failed”.
In the case of “LGTLFFSLEYNFERKAFVVNIKEARGLPAMDEQSMTSDPYIKMTILPEKKHKVKTRVLRKTLDPAFDETFTFYGIPYTQIQELALHFTILSFDRFSRDDIIGEVLIPLSGIELSEGKMLMNREII”, the protein production is reported as “not failed”.
With “LKKAGGALIAGVLKNGPADDAGIKPGDVLVAVNGKPIFNSSEMLNMVASLAPGKSATLTILRHGGQQDIQVRIGKRPS” the protein production was “failed”.
With “LLADGQLQDWHDSTVYEIYHHWRHRYPKGVFENREHLFSAEIPRDTPIALQPEEHVSYGWFDMEEAAEKVFSPSNRRAILELGRFLGKR” the protein production was “failed”.
In the case of “LLHGDFELAVPGGPVAAYYAAPAGREQLPIVLVVQEIFGLHEHIKDVCRRLAHDGYLAVSVNLYQRQGDASRYDNIPGLVAELVSKVPDEQVHADLDASLAWAAAHGGDGARVGVTGFCWGGRTTWMYAARNPAVKAGVAWYGRLSSGHGPLIKQVPLDVAGSLHAPVLGLYGGKDESIPLDDVRAMEARLQQGGAPAQASRIVVYPQAGHAFLADYRPSYRAADAQDGWRRMLDWFALYL”, the protein production is reported as “not failed”.

Reference: a protein production outcome set (Wang et al. 2014)
